The target in experiment [1] is human rod outer segment guanylate cyclase 1 (ROS-GC1), mutant P575L (human) (UniProt Q02846).
In experiment [2] the target is human rod outer segment guanylate cyclase 1 (ROS-GC1), wildtype (human) (UniProt Q02846).

B1: bovine guanylate cyclase-activating protein 2 (GCAP2), myristoylated (natural protein)
chain: MGQQFSWEEAEENGAVGAADAAQLQEWYKKFLEECPSGTLFMHEFKRFFKVPDNEEATQYVEAMFRAFDTNGDNTIDFLEYVAALNLVLRGTLEHKLKWTFKIYDKDRNGCIDRQELLDIVESIYKLKKACSVEVEAEQQGKLLTPEEVVDRIFLLVDENGDGQLSLNEFVEGARRDKWVMKMLQMDLNPSSWISQQRRKSAMF
modifications: myristoylated (degree of myristoylation typically higher than 90%)
In the case of B1, the EC50 of guanylate cyclase activation (cGMP produced) with 0–20 μM Ca2+-free, Mg2+-bound GCAP2, HEK cell membranes, 30 min in experiment [1] turned out to be 7.44 µM; in experiment [2], 8.34 µM.

B2: bovine guanylate cyclase-activating protein 1 (GCAP1), D6S mutant, myristoylated (natural protein)
chain: MGNIMSGKSVEELSSTECHQWYKKFMTECPSGQLTLYEFRQFFGLKNLSPWASQYVEQMFETFDFNKDGYIDFMEYVAALSLVLKGKVEQKLRWYFKLYDVDGNGCIDRDELLTIIRAIRAINPCSDSTMTAEEFTDTVFSKIDVNGDGELSLEEFMEGVQKDQMLLDTLTRSLDLTRIVRRLQNGEQDEEGASGRETEAAEADG
modifications: myristoylated (degree of myristoylation typically higher than 90%)
Regarding B2, the EC50 of guanylate cyclase activation (cGMP produced) with 0–20 μM Ca2+-free, Mg2+-bound GCAP1, HEK cell membranes, 30 min was found to be 3.32 µM in experiment [1] and 2.93 µM in experiment [2].

(Values after paper PMC3935488.)
